Measurements as given in the supplement of paper PMC10567573.

B1: GMCL1 (parent)
chain: FCYCAGSHKRKRSSGSFCYCHPDS

Variants of: B1
Assay: protein stability index of a GFP-peptide fusion (GPS, HEK-293T) (PSI 1-6); higher = more stable
Settings: c terminus: a fixed tail appended
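Also: lentivirally expressed fusions sorted by FACS into six bins by GFP to DsRed ratio, PSI derived from sequencing read proportions per bin multiplied by bin number.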

Protein stability index: each site, then its substitutions
R10: G 2.27, S 1.82, T 2.27, V 1.81, P 1.9, M 1.9, E 2.5, K 1.96, F 1.4, W 1.92, N 2.24, I 2.32, Q 2.29, L 1.99, Y 1.85, H 1.68
C18: M 2.11, I 2.27, G 2.18, P 2.1, Q 2.63, W 2.99, R 1.63, T 1.79, D 1.87, A 2.74, N 2.2, K 1.95, H 1.77, V 1.83, L 2.4, S 2.65, E 2.74, Y 1.14
K11: Y 2.95, C 1.77, T 2.22, A 1.59, W 2.03, D 2.45, Q 1.33, E 1.87, L 2.41, F 1.68, P 2.31, G 1.97, M 2.29, N 1.93, V 1.39, S 2.85, H 2.18, R 1.98, I 2.92
S13: W 1.84, H 2.21, N 1.64, I 1.88, L 2.5, M 2.04, C 2.17, V 1.86, F 2.24, D 2.74, G 1.56, T 2.11, P 2.67, K 1.96, E 2.02, Q 1.7, A 1.95, R 1.85, Y 1.7
S14: A 2.2, P 1.93, F 2.35, I 1.64, N 2.37, E 1.87, G 1.89, D 2.18, C 1.86, W 2.03, Y 2.07, H 2.79, M 2.04, T 1.46, L 2.6, Q 1.89, R 2.02, K 1.61, V 1.89
F17: R 2.53, P 2.98, C 3.2, D 2.84, K 2.17, N 2.06, H 2.46, A 2.11, Y 2.25, S 1.78, Q 2.61, M 2.15, W 1.9, G 2.19, V 2.04, L 2.3, I 2.05, E 3.01, T 2.27
S16: H 2, A 2.33, P 1.36, M 2.44, L 1.26, T 2.29, W 2.06, K 3.24, E 3.31, V 2.16, D 1.88, Y 2.14, N 1.36, Q 1.69, F 2.41, R 1.59, I 2.49, C 1.91
R12: I 1.75, A 2.04, H 1.96, K 1.97, G 1.38, W 2.9, S 1.74, D 2.06, Q 2.33, F 1.64, V 1.89, M 1.54, N 2.01, L 1.63, P 2.44, C 1.85, T 2.43, Y 2.56, E 1.15
Y19: A 3.72, C 2.86
G15: A 1.61, Y 2.56, C 1.5, I 2.41, V 2.6, L 3.16, S 2.17, N 2.81, H 2.07, W 2.26, K 1.72, F 1.8, T 1.96, P 1.6, D 2.25, M 1.21, R 1.62, E 2.67
